B1: Flag-WHRN (wild type) [mouse] / Myc-USH2A (usherin, aa 4819-5193) [mouse] (parent complex)
chain 1: MNAQLDGLSVSSSSTGSLGSAAAAAGGGGGAGLRLLSANVRQLHQALTALLSEPEREQFTHCLNAYHARRNVFDLVRTLRVLLDSPVKRRLLPMLRLVIPRSDQLLFDQYTAEGLYLPATTPYRQPAWAAPDGAGPGEVRLVSLRRAKAHEGLGFSIRGGSEHGVGIYVSLVEPGSLAEKEGLRVGDQILRVNDKSLARVTHAEAVKALKGSKKLVLSVYSAGRIPGGYVTNHIYTWVDPQGRSTSPPSSLPQPHGSTLRQREDDRRSTLHLLQSGDEKKVNLVLGDGRSLGLTIRGGAEYGLGIYITGVDPGSEAESSGLKVGDQILEVNGRSFLNILHDEAVKLLKSSRHLILTVKDVGRLPHARTTVDQTKWIASSRIGESVANSAGFPGDHTEEGTSKPGFYKGPAGSQVTLSSLGNQTRALLDDQARHLLTEQERATMMYYLAQYRGGTISVEAMVMALFELLNTHAKFSLLSEVRSIISPQDLDRFDHLVLRREIESMKARQPPGPGVGDTYSMVSYSDTGSSTGSHGTSTTVSSARERLLWLIDLMENTLDLEGTGETTQGSTNALPDVSVDDVKSPSEDLPGIKPPPPPPPLAQGHDRLLGQPRKPGREDPAPLSSAAHSGIVFSAPRNRSPPPGTAPTPGPSSAQDSPSSPIYASISHANPSSRKPLDTHLALVNQHPIGPFPRVQSPPHLKSPPAETPGAGACLPPPSPSEHPDAVGANQHFVLVEVHRPDSEPDVNEVRALPQTRTASTLSQLSDSGQTLSEDSGVDAGETEASTSGRGRQTASAKNKNGKEQPRTERTAEGANKPPGLLEPTSTLVRVRKSAATLGIAIEGGANTRQPLPRIVTIQRGGSAHNCGQLKVGHVILEVNGQTLRGKEHKEAARIIAEAFKTKERDYIDFLVTEFNVML
chain 2: PPSGLSPPQVQTLGSRMASVHWTPPLLPNGVIHSYELQLQRACPPDSAPRCPPSHTERKYWGPGHRASLAGLQPNTAYGVQVVAYNEAGSTASGWTNFSTKKEMPQYQALFSVDSNASMVWVDWSGTFLLNGHLKEYVVTDGGRRVYSGLDTTLYIPRMVDKIFFFQVTCTTDIGSVKTPLVQYDAATGSGLVLTTPGEKKGAGTKSTEFYSELWFIMVMAVVGLILLAIFLSLILQRKIHKEPCIRERPPLVPLQKRMTPLSVYPPGETHVGLADTRLPRSGTPMSIRSSQSVSVLRIPSQSQLSHAYSQSSLHRSVSQLMDMADKKVVTEDSLWETIMGHSSGLYVDEEELMNAIKGFSSVTKEHTAFTDTHL

Variants of: B1
Assay: co-immunoprecipitation (band intensity quantified); HEK293 cells; n = 3; parent: 1; read off a plot

| Variant | ratio to parent |
| --- | --- |
| chain 1 S85E | ~1 |
| chain 1 S156E | ~1 |
| chain 1 S37E | ~1 |

Continued, values first:

| ratio to parent | Variant |
| --- | --- |
| ~1 | chain 1 S384E |
| ~1 | chain 1 S246E |
